This is an account of results in patent US20240150440A1 (LUMEN BIOSCIENCE, published 2024).

By IC50 is commonly meant the concentration at which inhibition is half-maximal. A word on the Kd: it is the equilibrium constant for the complex coming apart. The EC50 is the midpoint of the concentration-response curve.

For assay [1], the target named is recombinant SARS-CoV-2 RBD with C-terminal AviTag (SARS-CoV-2, UniProt P0DTC2 319-541).
In assay [2] the target is SARS-COV-2 Wuhan Reference RBD (SARS-CoV-2, UniProt P0DTC2 319-541). The assay can be described thus: ELISA, RBD coated. A general note: In an ELISA, binding on a coated surface is turned into a signal by an enzyme label.

B1: MBP-5HVZ-R5A-B3-H6 (VHH, not shown: large carriers; small tags and cut ends)
VHH: QVQLVESGGGLVQPGGSLRLSCAASGQLDRSNAMAWFRQAPGKGREWVASITSGASTQYADSVKGRFTISRDNAKNTVYLQMNSLKPEDTAVYYCAADRYRAIQRTQYSWGQGTQVTVSS
Turning to B1, in assay [1], the IC50 came out at 35.9 nM and the Kd is approximately 1200 nM.

B2: PP930 MBP-5HVZ-R2b-D4-H6 (VHH)
VHH: QVQLVESGGGLVQPGGSLRLSCAASGSYASIASMHWFRQAPGKQREFVAGLTSGGSRIYGDSVKGRFTISRDNAKNTVYLQMNSLKPEDTAVYYCTALILHYAGMYDYWGQGTQVTVSS
notes: Form: Dimer
For the molecule B2, in assay [2], the EC50 came to 3.18 nM.

B3: MBP-5HVZ-R2E-F4-H6 (VHH, not shown: large carriers; small tags and cut ends)
VHH: QVQLVESGGGLVQPGGSLRLSCAASGETFSSNAMHWFRQAPGKGREFVAAITSGGNDNYSDSVKGRFTISRDNAKNTVYLQMNSLKPEDTAVYYCNAPATEDTSHYPRNYWGQGTQVTVSS
Turning to B3, in assay [1], the IC50 turned out to be 6.3 nM and the Kd was 11.4 nM.

B4: MBP-5HVZ-R5A-D4-H6 (VHH, not shown: large carriers; small tags and cut ends)
VHH: QVQLVESGGGLVQPGGSLRLSCAASGSAMMINRTHWFRQAPGKEREGVAGITWQGSTYYADSVKGRFTISRDNAKNTVYLQMNSLKPEDTAVYYCNAVAPVHENENYWGQGTQVTVSS
Turning to B4, in assay [1], the IC50 turned out to be 5.7 nM and the Kd came to 21.1 nM.

B5: MBP-5HVZ-R5A-A1-H6 (VHH, not shown: large carriers; small tags and cut ends)
VHH: QVQLVESGGGLVQPGGSLRLSCAASGAELSYTAIHWFRQAPGKQREFVATINSGGSSYYADSVKGRFTISRDNAKNTVYLQMNSLKPEDTAVYYCTALLDSTYDYWGQGTQVTVSS
On to B5, for which, in assay [1], the IC50 amounted to 3.4 nM and the Kd amounted to 29 nM.

B6: R5A-C5 (competition ELISA sample) (VHH)
VHH: QVQLVESGGGLVQPGGSLRLSCAASGDIFSINALHWFRQAPGKQREEVAAITSGGSTGYADSVKGRFTISRDNAKNTVYLQMNSLKPEDTAVYYCAAQQARGGLDSDYWGQGTQVTVSS
On to B6, for which, in assay [1], the half-inhibitory concentration (IC50) worked out at 1.4 nM and the Kd came to 7.04 nM.

B7: PP1153 MBP-5HVZ-PAPA-R5d-D4-H6 (VHH)
VHH: QVQLVESGGGLVQPGGSLRLSCAASGSDFTINAMHWFRQAPGKQREFVATITSTSSTAYRDSVKGRFTISRDNAKNTVYLQMNSLKPEDTAVYYCAAFAVRDADTAGWTARDYWGQGTQVTVSS
notes: Form: Dimer
For the molecule B7, the EC50 in assay [2] was 1.23 nM.

B8: PP912 MBP-5HVZ-S2b-G8-H6 (VHH)
VHH: QVQLVESGGGLVQPGGSLRLSCAASGSIQSYEAMHWFRQAPGKAREWVAVITWGDSTQYGDSVKGRFTISRDNAKNTVYLQMNSLKPEDTAVYYCAADVRQGYSSWGQGTQVTVSS
notes: Form: Dimer
As for B8, a half-maximal effect in assay [2] (EC50) was put at 2.33 nM.

B9: MBP-R5A-A5-H6 (VHH, not shown: large carriers; small tags and cut ends)
VHH: QVQLVESGGGLVQPGGSLRLSCAASGSAFATNGLHWFRQAPGKQREFVAGITSNGSINYKDSVKGRFTISRDNAKNTVYLQMNSLKPEDTAVYYCTALLMSYGGGEEYDYWGQGTQVTVSS
B9: the Kd in assay [1] is approximately 920 nM.

B10: MBP-5HVZ-R5A-A5-H6 (VHH, not shown: large carriers; small tags and cut ends)
VHH: QVQLVESGGGLVQPGGSLRLSCAASGSAFATNGLHWFRQAPGKQREFVAGITSNGSINYKDSVKGRFTISRDNAKNTVYLQMNSLKPEDTAVYYCTALLMSYGGGEEYDYWGQGTQVTVSS
Consider B10, for which, in assay [1], the half-maximal inhibitory concentration (IC50) was 4.4 nM and the Kd was 24.7 nM.

B11: PP1099 MBP-5HVZ-PAPA-RN-12-H6 (VHH)
VHH: QVQLVESGGGLVQPGGSLRLSCAASGSSFEGNAVHWFRQAPGKNREFVATITTSTSYYYADSVKGRFTISRDNAKNTVYLQMNSLKPEDTAVYYCAARLKDRGPQSEYDYWGQGTQVTVSS
notes: Form: Dimer
As to B11, the response in assay [2] was half-maximal at 4.24 nM (EC50).

B12: PP1154 MBP-5HVZ-PAPA-R5d-G1-H6 (VHH)
VHH: QVQLVESGGGLVQPGGSLRLSCAASGSIFGINDVHWFRQAPGKEREFVATITNGLSARYKDSVKGRFTISRDNAKNTVYLQMNSLKPEDTAVYYCAAQVYITTYELYDYWGQGTQVTVSS
notes: Form: Dimer
In turn, B12 came in with an EC50 in assay [2] of 2.42 nM.
